Test results published in US20240024432A1 (DENALI THERAPEUTICS, published 2024).

T1: cynomolgus transferrin receptor (TfR) ectodomain (ECD) (cynomolgus, UniProt Q5RDH6 121-760 (Pongo abelii entry), biotinylated where captured on streptavidin)
T1 construct: also called cyno TfR; cynoTfR; not shown: C-terminal cleavable His- and Avi-tags
T1 chain: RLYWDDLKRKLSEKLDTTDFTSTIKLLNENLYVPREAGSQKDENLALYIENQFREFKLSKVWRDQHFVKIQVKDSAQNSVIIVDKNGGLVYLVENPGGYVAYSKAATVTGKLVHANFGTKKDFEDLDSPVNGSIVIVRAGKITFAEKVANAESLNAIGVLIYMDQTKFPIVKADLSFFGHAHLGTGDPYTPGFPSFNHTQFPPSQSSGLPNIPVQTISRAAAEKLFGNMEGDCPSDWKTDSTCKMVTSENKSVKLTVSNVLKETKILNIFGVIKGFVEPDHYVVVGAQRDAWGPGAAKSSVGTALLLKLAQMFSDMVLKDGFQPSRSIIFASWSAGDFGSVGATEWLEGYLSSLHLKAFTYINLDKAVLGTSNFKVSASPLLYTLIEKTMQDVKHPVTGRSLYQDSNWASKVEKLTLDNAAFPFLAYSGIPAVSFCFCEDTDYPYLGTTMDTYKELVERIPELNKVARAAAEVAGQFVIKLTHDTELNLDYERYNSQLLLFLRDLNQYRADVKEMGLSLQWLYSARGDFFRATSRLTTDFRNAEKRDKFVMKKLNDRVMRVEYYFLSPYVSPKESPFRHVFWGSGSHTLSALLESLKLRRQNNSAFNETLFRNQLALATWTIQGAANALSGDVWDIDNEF


What was measured:
[1] = molecular target: T1, cynomolgus transferrin receptor (TfR) …; experiment: yeast surface display flow cytometry; yeast-displayed clone stained with 250 nM biotinylated cyno TfR, neutravidin-AF647; median fluorescence intensity
Description: (§1) For each clone, two million cells were washed three times in PBS+0.5% BSA at pH 7.4. […] Cells were stained with nuetravidin-Alexafluor647 (AF647) for 30 minutes at 4° C., then washed twice again. Expression was measured using anti-c-myc antibody with anti-chicken-Alexfluor488 (AF488) secondary antibody. Cells were resuspended, and median fluorescence intensity (MFI) of AF647 and AF488 was measured on a BD FACS CantoII. MFI was calculated for the TfR-binding population for each population and plotted with human TfR, cyno TfR, or control binding (FIG. 44).

[2] = molecular target: T2, human transferrin receptor (TfR) ectodomain (ECD) (human, UniProt P02786 121-760, biotinylated where captured on streptavidin); experiment: yeast surface display flow cytometry; yeast-displayed clone stained with 250 nM biotinylated human TfR, neutravidin-AF647; median fluorescence intensity
T2 construct: also called human TfR; huTfR; not shown: C-terminal cleavable His- and Avi-tags
Description: as §1

Row | Binder | binding result [1] | binding result [2]
1 | 3.2-14 (designed binder, also called CH3C.3.2-14) modified Fc polypeptide displayed on yeast (c-Myc tagged): PCPAPELLGGPSVFLFPPKPKDTLMISRTPEVTCVVVDVSHEDPEVKFNWYVDGVEVHNAKTKPREEQYNSTYRVVSVLTVLHQDWLNGKEYKCKVSNKALPAPIEKTISKAKGQPREPQVYTLPPSRDELTKNQVSLTCLVKGFYPSDIAVEWESLGHVWVGVKTTPPVLDSDGSFFLYSKLTVPKSTWQQGWVFSCSVMHEALHNHYTQKSLSLSPGK | binds | binds
2 | 3.1-3 (designed binder, also called CH3C.3.1-3) modified Fc polypeptide displayed on yeast (c-Myc tagged): PCPAPELLGGPSVFLFPPKPKDTLMISRTPEVTCVVVDVSHEDPEVKFNWYVDGVEVHNAKTKPREEQYNSTYRVVSVLTVLHQDWLNGKEYKCKVSNKALPAPIEKTISKAKGQPREPQVYTLPPSRDELTKNQVSLTCLVKGFYPSDIAVEWESLGHVWVATKTTPPVLDSDGSFFLYSKLTVPKSTWQQGWVFSCSVMHEALHNHYTQKSLSLSPGK | binds | binds
3 | 3.2-17 (designed binder, also called CH3C.3.2-17) modified Fc polypeptide displayed on yeast (c-Myc tagged): PCPAPELLGGPSVFLFPPKPKDTLMISRTPEVTCVVVDVSHEDPEVKFNWYVDGVEVHNAKTKPREEQYNSTYRVVSVLTVLHQDWLNGKEYKCKVSNKALPAPIEKTISKAKGQPREPQVYTLPPSRDELTKNQVSLTCLVKGFYPSDIAVEWESLGHVWVGTKTTPPVLDSDGSFFLYSKLTVPKSTWQQGWVFSCSVMHEALHNHYTQKSLSLSPGK | binds | binds
4 | 3.2-24 (designed binder, also called CH3C.3.2-24) modified Fc polypeptide displayed on yeast (c-Myc tagged): PCPAPELLGGPSVFLFPPKPKDTLMISRTPEVTCVVVDVSHEDPEVKFNWYVDGVEVHNAKTKPREEQYNSTYRVVSVLTVLHQDWLNGKEYKCKVSNKALPAPIEKTISKAKGQPREPQVYTLPPSRDELTKNQVSLTCLVKGFYPSDIAVEWESLGHVWVHTKTTPPVLDSDGSFFLYSKLTVPKSTWQQGWVFSCSVMHEALHNHYTQKSLSLSPGK | binds | binds
5 | 3.4-1 (designed binder, also called CH3C.3.4-1) modified Fc polypeptide displayed on yeast (c-Myc tagged): PCPAPELLGGPSVFLFPPKPKDTLMISRTPEVTCVVVDVSHEDPEVKFNWYVDGVEVHNAKTKPREEQYNSTYRVVSVLTVLHQDWLNGKEYKCKVSNKALPAPIEKTISKAKGQPREPQVYTLPPSRDELTKNQVSLTCLVKGFYPSDIAVEWESWGFVWSTYKTTPPVLDSDGSFFLYSKLTVPKSNWQQGFVFSCSVMHEALHNHYTQKSLSLSPGK | binds | binds
6 | 3.4-26 (designed binder, also called CH3C.3.4-26) modified Fc polypeptide displayed on yeast (c-Myc tagged): PCPAPELLGGPSVFLFPPKPKDTLMISRTPEVTCVVVDVSHEDPEVKFNWYVDGVEVHNAKTKPREEQYNSTYRVVSVLTVLHQDWLNGKEYKCKVSNKALPAPIEKTISKAKGQPREPQVYTLPPSRDELTKNQVSLTCLVKGFYPSDIAVEWESWGTVWGTYKTTPPVLDSDGSFFLYSKLTVPKSNWQQGYVFSCSVMHEALHNHYTQKSLSLSPGK | binds | binds
7 | 3.2-3 (designed binder, also called CH3C.3.2-3) modified Fc polypeptide displayed on yeast (c-Myc tagged): PCPAPELLGGPSVFLFPPKPKDTLMISRTPEVTCVVVDVSHEDPEVKFNWYVDGVEVHNAKTKPREEQYNSTYRVVSVLTVLHQDWLNGKEYKCKVSNKALPAPIEKTISKAKGQPREPQVYTLPPSRDELTKNQVSLTCLVKGFYPSDIAVEWESLGHVWVEQKTTPPVLDSDGSFFLYSKLTVPKSTWQQGWVFSCSVMHEALHNHYTQKSLSLSPGK | binds | binds
8 | 3.2-19 (designed binder, also called CH3C.3.2-19) modified Fc polypeptide displayed on yeast (c-Myc tagged): PCPAPELLGGPSVFLFPPKPKDTLMISRTPEVTCVVVDVSHEDPEVKFNWYVDGVEVHNAKTKPREEQYNSTYRVVSVLTVLHQDWLNGKEYKCKVSNKALPAPIEKTISKAKGQPREPQVYTLPPSRDELTKNQVSLTCLVKGFYPSDIAVEWESLGHVWVNQKTTPPVLDSDGSFFLYSKLTVPKSTWQQGWVFSCSVMHEALHNHYTQKSLSLSPGK | binds | binds
9 | CH3C.35 (designed binder) modified Fc polypeptide displayed on yeast (c-Myc tagged): PCPAPELLGGPSVFLFPPKPKDTLMISRTPEVTCVVVDVSHEDPEVKFNWYVDGVEVHNAKTKPREEQYNSTYRVVSVLTVLHQDWLNGKEYKCKVSNKALPAPIEKTISKAKGQPREPQVYTLPPSRDELTKNQVSLTCLVKGFYPSDIAVEWESYGTEWSSYKTTPPVLDSDGSFFLYSKLTVTKSEWQQGFVFSCSVMHEALHNHYTQKSLSLSPGK | binds | binds
10 | 3.2-1 (designed binder, also called CH3C.3.2-1) modified Fc polypeptide displayed on yeast (c-Myc tagged): PCPAPELLGGPSVFLFPPKPKDTLMISRTPEVTCVVVDVSHEDPEVKFNWYVDGVEVHNAKTKPREEQYNSTYRVVSVLTVLHQDWLNGKEYKCKVSNKALPAPIEKTISKAKGQPREPQVYTLPPSRDELTKNQVSLTCLVKGFYPSDIAVEWESLGHVWVNFKTTPPVLDSDGSFFLYSKLTVPKSTWQQGWVFSCSVMHEALHNHYTQKSLSLSPGK | binds | binds
11 | 3.4-19 (designed binder, also called CH3C.3.4-19) modified Fc polypeptide displayed on yeast (c-Myc tagged): PCPAPELLGGPSVFLFPPKPKDTLMISRTPEVTCVVVDVSHEDPEVKFNWYVDGVEVHNAKTKPREEQYNSTYRVVSVLTVLHQDWLNGKEYKCKVSNKALPAPIEKTISKAKGQPREPQVYTLPPSRDELTKNQVSLTCLVKGFYPSDIAVEWESWGHVWSTYKTTPPVLDSDGSFFLYSKLTVPKSNWQQGYVFSCSVMHEALHNHYTQKSLSLSPGK | binds | binds
12 | 3.2-5 (designed binder, also called CH3C.3.2-5) modified Fc polypeptide displayed on yeast (c-Myc tagged): PCPAPELLGGPSVFLFPPKPKDTLMISRTPEVTCVVVDVSHEDPEVKFNWYVDGVEVHNAKTKPREEQYNSTYRVVSVLTVLHQDWLNGKEYKCKVSNKALPAPIEKTISKAKGQPREPQVYTLPPSRDELTKNQVSLTCLVKGFYPSDIAVEWESLGHVWVDQKTTPPVLDSDGSFFLYSKLTVPKSTWQQGWVFSCSVMHEALHNHYTQKSLSLSPGK | binds | binds
